The text below walks through data of patent US20060121042A1 (AstraZeneca / MedImmune, published 2006).

Assay [1] deals with T1, r murine EphA7 (mouse, UniProt Q61772).
T1 construct: recombinant Fc fusion (R&D Systems); also called rmuEphA7-Fc; mEphA7
T1 sequence (receptor-Fc fusion, looked up): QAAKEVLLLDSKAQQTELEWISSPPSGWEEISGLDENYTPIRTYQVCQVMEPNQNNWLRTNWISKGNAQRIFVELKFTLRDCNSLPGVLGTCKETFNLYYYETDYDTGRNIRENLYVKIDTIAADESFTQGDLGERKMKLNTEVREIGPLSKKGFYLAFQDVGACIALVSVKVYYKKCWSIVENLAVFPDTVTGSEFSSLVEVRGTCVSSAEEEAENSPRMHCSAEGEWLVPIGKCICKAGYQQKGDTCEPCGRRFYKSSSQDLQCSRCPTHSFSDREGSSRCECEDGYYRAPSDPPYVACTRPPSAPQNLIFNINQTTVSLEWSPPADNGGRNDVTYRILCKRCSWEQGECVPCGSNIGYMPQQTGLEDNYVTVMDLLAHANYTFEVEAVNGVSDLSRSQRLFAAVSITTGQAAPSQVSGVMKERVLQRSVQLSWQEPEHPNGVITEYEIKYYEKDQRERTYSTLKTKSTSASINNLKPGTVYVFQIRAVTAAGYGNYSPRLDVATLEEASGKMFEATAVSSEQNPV
Put plainly: activity ELISA, IgG on coated antigen.

Assay [2] addresses T2, r murine EphA4 (mouse, UniProt Q03137).
T2 construct: recombinant Fc fusion (R&D Systems); also called rmuEphA4-Fc; mEphA4
The experiment in a line: activity ELISA, IgG on coated antigen.

Assay [3] deals with T3, r murine EphA3 (mouse, UniProt P29319).
T3 construct: recombinant Fc fusion (R&D Systems); also called rmuEphA3-Fc; mEphA3
T3 sequence (receptor-Fc fusion, looked up): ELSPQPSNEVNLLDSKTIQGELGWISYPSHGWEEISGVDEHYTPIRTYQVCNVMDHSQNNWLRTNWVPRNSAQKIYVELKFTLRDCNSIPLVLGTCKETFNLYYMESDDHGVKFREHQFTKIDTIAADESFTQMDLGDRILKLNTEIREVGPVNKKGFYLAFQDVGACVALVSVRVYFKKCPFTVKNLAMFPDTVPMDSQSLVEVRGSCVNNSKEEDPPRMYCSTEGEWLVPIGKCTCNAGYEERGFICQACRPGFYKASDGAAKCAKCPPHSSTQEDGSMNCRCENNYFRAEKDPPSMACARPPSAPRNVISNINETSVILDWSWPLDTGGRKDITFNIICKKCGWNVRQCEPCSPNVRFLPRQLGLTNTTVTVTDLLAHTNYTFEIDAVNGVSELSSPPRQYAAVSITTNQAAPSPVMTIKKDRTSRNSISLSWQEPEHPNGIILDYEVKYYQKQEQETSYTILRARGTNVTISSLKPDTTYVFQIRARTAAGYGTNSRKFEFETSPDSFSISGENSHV
The experiment in a line: activity ELISA, IgG on coated antigen.

Assay [4] concerns the target T4, Human EphA4-His fusion protein (human, UniProt P54764 20-547).
T4 construct: also called rhuEphA4-His; not shown: Histidine tag
Put plainly: BIAcore, IgG immobilized on the sensor chip, EphA4-his as analyte. Here is the method:
(§1) FIG. 15A-15B. […] Binding affinities were measured using the BIAcore assay. […] Variant kinetic measurements for human EphA4 and were obtained using BIAcore with immobilized variant antibodies and human EphA4-Fc and EphA4-His as analytes.

The target of assay [5] is T5, Human EphA4-Fc fusion protein (human, UniProt P54764 20-547).
T5 construct: not shown: Fc portion of a human IgG1
T5 sequence (P54764 20-547): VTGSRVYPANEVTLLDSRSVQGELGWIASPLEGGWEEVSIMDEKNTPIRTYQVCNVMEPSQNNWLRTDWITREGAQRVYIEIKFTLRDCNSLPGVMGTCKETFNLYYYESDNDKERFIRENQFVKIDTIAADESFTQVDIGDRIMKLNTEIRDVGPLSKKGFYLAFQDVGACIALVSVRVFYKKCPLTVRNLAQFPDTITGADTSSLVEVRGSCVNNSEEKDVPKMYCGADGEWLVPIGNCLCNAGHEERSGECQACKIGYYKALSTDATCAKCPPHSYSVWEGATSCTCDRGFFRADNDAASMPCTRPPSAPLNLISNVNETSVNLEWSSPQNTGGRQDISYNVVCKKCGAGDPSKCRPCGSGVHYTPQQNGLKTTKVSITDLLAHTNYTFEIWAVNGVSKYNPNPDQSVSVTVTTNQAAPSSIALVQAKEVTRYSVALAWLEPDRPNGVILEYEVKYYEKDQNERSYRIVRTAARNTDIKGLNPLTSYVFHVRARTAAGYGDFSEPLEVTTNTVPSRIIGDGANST
Put plainly: BIAcore, IgG immobilized on the sensor chip, EphA4-Fc as analyte; koff and KD printed as ***, comment: off-rate below LOD. Here is the method: as §1

Assay [6] has as its target T6, mEphA7 (mouse, UniProt Q61772).
T6 construct: part of an Fc fusion; also called rmuEphA7-Fc
T6 sequence (receptor-Fc fusion, looked up): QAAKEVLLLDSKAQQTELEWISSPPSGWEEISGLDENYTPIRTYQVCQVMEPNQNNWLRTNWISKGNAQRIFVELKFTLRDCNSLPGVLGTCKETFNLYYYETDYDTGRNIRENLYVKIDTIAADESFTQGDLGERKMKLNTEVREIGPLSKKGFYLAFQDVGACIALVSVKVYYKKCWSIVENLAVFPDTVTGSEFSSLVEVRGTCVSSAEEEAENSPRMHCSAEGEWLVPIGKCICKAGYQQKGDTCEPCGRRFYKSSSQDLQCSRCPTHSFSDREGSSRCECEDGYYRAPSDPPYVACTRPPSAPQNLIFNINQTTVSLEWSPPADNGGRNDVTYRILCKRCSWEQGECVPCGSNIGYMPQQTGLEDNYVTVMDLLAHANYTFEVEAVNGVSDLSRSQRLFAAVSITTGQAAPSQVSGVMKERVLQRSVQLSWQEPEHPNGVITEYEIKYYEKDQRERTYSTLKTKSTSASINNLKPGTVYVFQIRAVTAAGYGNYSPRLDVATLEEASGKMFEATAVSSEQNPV
Put plainly: ELISA, receptor coated on the plate, purified IgG, anti-human kappa-HRP.

The target in assay [7] is T7, mEphA4 (mouse, UniProt Q03137).
T7 construct: part of an Fc fusion; also called rmuEphA4-Fc
T7 sequence (Q03137 20-547 limits assumed): as the sequence (P54764 20-547) above, with P59A, N121S, V124G, R250Q, S251N, T270S, K378R, N406S counted along it
The assay is described as above.

Assay [8] deals with T8, mEphA3 (mouse, UniProt P29319).
T8 construct: part of an Fc fusion; also called rmuEphA3-Fc
T8 sequence (receptor-Fc fusion, looked up): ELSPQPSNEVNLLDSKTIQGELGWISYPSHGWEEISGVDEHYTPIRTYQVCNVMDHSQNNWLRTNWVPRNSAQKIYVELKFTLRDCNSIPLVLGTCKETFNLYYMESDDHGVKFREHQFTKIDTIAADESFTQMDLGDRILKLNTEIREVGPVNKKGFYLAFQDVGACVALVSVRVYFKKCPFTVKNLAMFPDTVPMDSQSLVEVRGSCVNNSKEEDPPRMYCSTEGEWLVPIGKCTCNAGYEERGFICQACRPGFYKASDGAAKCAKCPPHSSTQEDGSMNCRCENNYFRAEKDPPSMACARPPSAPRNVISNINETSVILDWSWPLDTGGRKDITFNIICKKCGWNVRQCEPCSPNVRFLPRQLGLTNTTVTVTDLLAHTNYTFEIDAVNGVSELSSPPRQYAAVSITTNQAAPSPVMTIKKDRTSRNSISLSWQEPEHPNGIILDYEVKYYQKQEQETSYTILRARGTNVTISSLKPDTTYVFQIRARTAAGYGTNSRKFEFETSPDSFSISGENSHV
Described as above.

T4 sequence (P54764 20-547): as the sequence (P54764 20-547) above
T2 sequence (Q03137 20-547 limits assumed): as the sequence (P54764 20-547) above, with P59A, N121S, V124G, R250Q, S251N, T270S, K378R, N406S counted along it

B1: 6B7 IgG1 (affinity optimized combinatorial variant of mAb GEA44 in human IgG1 format) (antibody, V domains shown)
VH: QVQLLQSGAEVKKPGASVKVPCKASGYTFTSRAMSWVRQAPGQGLEWMGWINTNTGNPTYAQGFTGRFVFSLDTSVSTAYLQISSLKAEDTAVYYCARVRFTVYGDGMDVWGQGTLVTVSS
VL: EIVLTQSPATLSVSPGERATLSCRASQSVSSNPAWYQQKPGQAPRLLIYGASTRATGIPDRFSASGSGTDFTLTISRVEPEDFAVYYCQQYGPSWTFGQGTKVEIK
Take B1: the binding result in assay [1], in assay [2], in assay [3], in assay [6], in assay [7] and in assay [8] was “binds” in each case. The molecule further displayed a Kd in assay [4] of 1.2 nM. This molecule showed an off-rate (koff) in assay [4] of 0.000353 s⁻¹. Also, the on-rate (kon) stood at 295000 M⁻¹ s⁻¹ in assay [4] and 793000 M⁻¹ s⁻¹ in assay [5].
